What is called EC50 is the concentration at which the effect is half-maximal.

This test addresses S蛋白RBD-His(319Arg-532Asn) (SARS-CoV-2, UniProt P0DTC2 319-532).

B1: R16-F10抗体 (antibody, V domains shown)
VH: QVQLVQSGPEVKEPGSSVKVSCKASGGTFDTAAISWVRQAPGQGPEWMGGIIPIFGTANYAQKFQGRVTITADESTSTAYMELSSLRSEDTAVYYCAREHTVAPVYGFDVWGQGTLVTVSS
VL: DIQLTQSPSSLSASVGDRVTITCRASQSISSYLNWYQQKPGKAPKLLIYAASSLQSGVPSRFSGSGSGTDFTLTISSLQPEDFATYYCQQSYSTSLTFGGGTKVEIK
For B1, the half-maximal effective concentration (EC50) was found to be 0.05 mg/L.

The record behind these values is patent CN112250763A (SANYOU BIOPHARMACEUTICALS SHANGHAI CO LTD; SHANGHAI ZJ BIO …, dated 2021).
